One test concerns the target T1, rhOX40-Avi-His (human, UniProt P43489 29-214, limits assumed).
T1 construct: also called OX40抗原; 人源OX40
T1 sequence (looked up): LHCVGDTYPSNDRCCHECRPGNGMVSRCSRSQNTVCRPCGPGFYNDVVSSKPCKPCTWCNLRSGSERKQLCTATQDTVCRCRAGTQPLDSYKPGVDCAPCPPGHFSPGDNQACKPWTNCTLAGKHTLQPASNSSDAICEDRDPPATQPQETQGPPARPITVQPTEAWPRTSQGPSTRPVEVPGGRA
As to the kind of experiment: ELISA, human OX40 coated. A general note: In an ELISA, binding on a coated surface is turned into a signal by an enzyme label.

The target in a further test is T2, 鼠源OX40 (mouse, UniProt P47741 20-211, limits assumed).
T2 construct: also called 鼠源OX40抗原
T2 sequence (looked up): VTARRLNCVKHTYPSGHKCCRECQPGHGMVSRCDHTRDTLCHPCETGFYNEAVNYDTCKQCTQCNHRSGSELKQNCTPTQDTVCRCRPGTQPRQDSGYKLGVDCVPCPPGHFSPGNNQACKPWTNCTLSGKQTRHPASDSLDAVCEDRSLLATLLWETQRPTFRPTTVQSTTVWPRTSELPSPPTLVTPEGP
The test is described as follows: ELISA, mouse OX40 coated.

B1: L52-2D7H232 (bispecific antibody, human IgG1, kappa)
light: DIQMTQSPSTLSASVGDRVTITCQSSQNVYSNNRLSWYQQKPGKAPKLLIYWTSFLASGVPSRFSGSGSGTEFTLTISSLQPDDFATYYCAGGYSGNLYTFGQGTKLEIKRTVAAPSVFIFPPSDEQLKSGTASVVCLLNNFYPREAKVQWKVDNALQSGNSQESVTEQDSKDSTYSLSSTLTLSKADYEKHKVYACEVTHQGLSSPVTKSFNRGEC
heavy: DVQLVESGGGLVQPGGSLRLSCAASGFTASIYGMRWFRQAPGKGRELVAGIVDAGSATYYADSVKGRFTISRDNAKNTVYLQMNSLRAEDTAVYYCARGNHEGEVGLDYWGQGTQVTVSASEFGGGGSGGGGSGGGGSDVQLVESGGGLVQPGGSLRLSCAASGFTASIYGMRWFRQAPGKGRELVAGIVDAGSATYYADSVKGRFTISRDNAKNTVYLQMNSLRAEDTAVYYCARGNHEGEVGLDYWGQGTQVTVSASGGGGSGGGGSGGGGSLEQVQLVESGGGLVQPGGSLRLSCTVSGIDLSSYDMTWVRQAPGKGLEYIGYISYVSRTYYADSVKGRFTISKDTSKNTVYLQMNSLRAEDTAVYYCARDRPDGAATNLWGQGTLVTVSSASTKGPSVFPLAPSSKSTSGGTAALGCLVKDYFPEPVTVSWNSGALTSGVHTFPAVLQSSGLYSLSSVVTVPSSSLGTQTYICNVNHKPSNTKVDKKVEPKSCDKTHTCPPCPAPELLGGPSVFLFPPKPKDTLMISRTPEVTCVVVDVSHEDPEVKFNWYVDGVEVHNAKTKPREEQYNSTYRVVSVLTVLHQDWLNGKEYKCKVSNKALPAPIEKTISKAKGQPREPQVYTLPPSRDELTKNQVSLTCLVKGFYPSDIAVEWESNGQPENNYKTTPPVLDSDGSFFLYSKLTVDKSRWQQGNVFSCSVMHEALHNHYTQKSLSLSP
notes: Symmetric bispecific: two tandem anti-OX40 nanobodies D7 joined to the heavy chain of the anti-PD-L1 IgG1 L52H232; also called 抗PD-L1与OX40双特异性抗体; 优选抗体L52-2D7H232
For B1, the figures for the binding result in the test with rhOX40-Avi-His and with 鼠源OX40 were “binds” and “no binding”, respectively.

B2: L52H232-D7 (bispecific antibody, human IgG1, kappa, N297A)
light: B1 light
heavy: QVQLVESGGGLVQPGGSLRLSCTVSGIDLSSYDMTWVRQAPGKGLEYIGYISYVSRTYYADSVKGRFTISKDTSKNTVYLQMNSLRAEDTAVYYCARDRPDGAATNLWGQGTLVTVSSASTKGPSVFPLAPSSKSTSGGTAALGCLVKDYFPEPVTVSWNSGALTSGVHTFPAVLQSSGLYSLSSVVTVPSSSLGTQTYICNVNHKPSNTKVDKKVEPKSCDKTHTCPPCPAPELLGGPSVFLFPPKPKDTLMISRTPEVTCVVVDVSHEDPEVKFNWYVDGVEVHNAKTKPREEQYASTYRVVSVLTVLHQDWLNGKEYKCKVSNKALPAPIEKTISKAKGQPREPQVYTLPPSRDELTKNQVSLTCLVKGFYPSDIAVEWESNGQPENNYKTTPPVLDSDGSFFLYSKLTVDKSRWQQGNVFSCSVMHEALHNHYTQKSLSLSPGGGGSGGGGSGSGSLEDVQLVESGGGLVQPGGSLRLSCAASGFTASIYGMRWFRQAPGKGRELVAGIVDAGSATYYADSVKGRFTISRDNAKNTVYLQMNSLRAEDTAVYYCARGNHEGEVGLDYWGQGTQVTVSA
notes: Symmetric bispecific: anti-OX40 nanobody D7 joined to the heavy chain of the anti-PD-L1 IgG1 L52H232; also called 抗PD-L1与OX40双特异性抗体
In the case of B2, the figures for the binding result with rhOX40-Avi-His and in the test with 鼠源OX40 were “binds” and “no binding”, respectively.

B3: L52-D7H232 (bispecific antibody, human IgG1, kappa, N297A)
light: B1 light
heavy: DVQLVESGGGLVQPGGSLRLSCAASGFTASIYGMRWFRQAPGKGRELVAGIVDAGSATYYADSVKGRFTISRDNAKNTVYLQMNSLRAEDTAVYYCARGNHEGEVGLDYWGQGTQVTVSASEFGGGGSGGGGSGGGGSLEQVQLVESGGGLVQPGGSLRLSCTVSGIDLSSYDMTWVRQAPGKGLEYIGYISYVSRTYYADSVKGRFTISKDTSKNTVYLQMNSLRAEDTAVYYCARDRPDGAATNLWGQGTLVTVSSASTKGPSVFPLAPSSKSTSGGTAALGCLVKDYFPEPVTVSWNSGALTSGVHTFPAVLQSSGLYSLSSVVTVPSSSLGTQTYICNVNHKPSNTKVDKKVEPKSCDKTHTCPPCPAPEDEGGPSVFLFPPKPKDTLMISRTPEVTCVVVDVSHEDPEVKFNWYVDGVEVHNAKTKPREEQYASTYRVVSVLTVLHQDWLNGKEYKCKVSNKALPAPIEKTISKAKGQPREPQVYTLPPCRDELTKNQVSLWCLVKGFYPSDIAVEWESNGQPENNYKTTPPVLDSDGSFFLYSKLTVDKSRWQQGNVFSCSVMHEALHNHYTQKSLSLSP
notes: Symmetric bispecific: anti-OX40 nanobody D7 joined to the heavy chain of the anti-PD-L1 IgG1 L52H232; also called 抗PD-L1与OX40双特异性抗体; 优选抗体L52-D7H232
For the molecule B3, the binding result with 鼠源OX40 is recorded as “no binding”.

B4: L52H232-2D7 (bispecific antibody, human IgG1, kappa, N297A)
light: B1 light
heavy: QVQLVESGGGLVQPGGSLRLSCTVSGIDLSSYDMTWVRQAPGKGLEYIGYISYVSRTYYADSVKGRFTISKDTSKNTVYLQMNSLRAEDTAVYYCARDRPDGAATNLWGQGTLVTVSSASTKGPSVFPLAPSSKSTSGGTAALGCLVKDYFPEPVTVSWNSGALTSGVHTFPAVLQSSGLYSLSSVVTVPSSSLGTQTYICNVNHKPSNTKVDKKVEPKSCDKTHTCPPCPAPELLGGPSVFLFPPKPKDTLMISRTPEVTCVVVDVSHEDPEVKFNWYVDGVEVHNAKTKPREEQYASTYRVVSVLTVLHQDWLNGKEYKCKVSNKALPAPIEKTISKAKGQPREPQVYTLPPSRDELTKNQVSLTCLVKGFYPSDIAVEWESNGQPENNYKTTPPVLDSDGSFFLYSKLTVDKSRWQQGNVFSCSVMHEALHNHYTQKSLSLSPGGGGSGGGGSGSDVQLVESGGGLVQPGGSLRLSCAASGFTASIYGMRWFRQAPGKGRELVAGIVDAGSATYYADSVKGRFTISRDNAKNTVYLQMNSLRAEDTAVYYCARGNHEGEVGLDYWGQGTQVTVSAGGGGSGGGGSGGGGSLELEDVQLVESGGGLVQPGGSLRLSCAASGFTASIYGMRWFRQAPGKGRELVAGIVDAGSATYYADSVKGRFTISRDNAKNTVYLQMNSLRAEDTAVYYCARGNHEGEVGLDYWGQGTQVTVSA
notes: to be rechecked; also called 抗PD-L1与OX40双特异性抗体
For the molecule B4, the binding result with rhOX40-Avi-His is recorded as “binds”; with 鼠源OX40, “no binding”.

The values above are taken from patent publication CN114478789A (ANHUI ANKE BIOLOGICAL ENG GROUP CO LTD, dated 2022).
